Assay [1] deals with human tenascin-C (human) (UniProt P24821). Put plainly: BIAcore. (In general: In SPR one partner is held on a chip, and binding of the other changes the refractive index at the surface.)
For assay [2] the target is unchanged. Kind of assay: ELISA, biotinylated antibody, 2-3 moles biotin/antibody. For orientation: ELISA stands for enzyme-linked immunosorbent assay.
For assay [3] the target is unchanged. Put plainly: ELISA, biotinylated antibody, 7-10 moles biotin/antibody.
Assay [4] shares this target. Kind of assay: ELISA, biotinylated antibody, 15-20 moles biotin/antibody.
The target is the same in assay [5]. Put plainly: ELISA, biotinylated antibody, 3.5-5 moles biotin/antibody.
Assay [6] has the same target. Put plainly: immunoreactivity of the batch used for biodistribution, 7-10 biotins/mole.

The results in this text go back to US20040005643A1.

Sequence of human tenascin-C (human) (P24821 23-2201 limits assumed): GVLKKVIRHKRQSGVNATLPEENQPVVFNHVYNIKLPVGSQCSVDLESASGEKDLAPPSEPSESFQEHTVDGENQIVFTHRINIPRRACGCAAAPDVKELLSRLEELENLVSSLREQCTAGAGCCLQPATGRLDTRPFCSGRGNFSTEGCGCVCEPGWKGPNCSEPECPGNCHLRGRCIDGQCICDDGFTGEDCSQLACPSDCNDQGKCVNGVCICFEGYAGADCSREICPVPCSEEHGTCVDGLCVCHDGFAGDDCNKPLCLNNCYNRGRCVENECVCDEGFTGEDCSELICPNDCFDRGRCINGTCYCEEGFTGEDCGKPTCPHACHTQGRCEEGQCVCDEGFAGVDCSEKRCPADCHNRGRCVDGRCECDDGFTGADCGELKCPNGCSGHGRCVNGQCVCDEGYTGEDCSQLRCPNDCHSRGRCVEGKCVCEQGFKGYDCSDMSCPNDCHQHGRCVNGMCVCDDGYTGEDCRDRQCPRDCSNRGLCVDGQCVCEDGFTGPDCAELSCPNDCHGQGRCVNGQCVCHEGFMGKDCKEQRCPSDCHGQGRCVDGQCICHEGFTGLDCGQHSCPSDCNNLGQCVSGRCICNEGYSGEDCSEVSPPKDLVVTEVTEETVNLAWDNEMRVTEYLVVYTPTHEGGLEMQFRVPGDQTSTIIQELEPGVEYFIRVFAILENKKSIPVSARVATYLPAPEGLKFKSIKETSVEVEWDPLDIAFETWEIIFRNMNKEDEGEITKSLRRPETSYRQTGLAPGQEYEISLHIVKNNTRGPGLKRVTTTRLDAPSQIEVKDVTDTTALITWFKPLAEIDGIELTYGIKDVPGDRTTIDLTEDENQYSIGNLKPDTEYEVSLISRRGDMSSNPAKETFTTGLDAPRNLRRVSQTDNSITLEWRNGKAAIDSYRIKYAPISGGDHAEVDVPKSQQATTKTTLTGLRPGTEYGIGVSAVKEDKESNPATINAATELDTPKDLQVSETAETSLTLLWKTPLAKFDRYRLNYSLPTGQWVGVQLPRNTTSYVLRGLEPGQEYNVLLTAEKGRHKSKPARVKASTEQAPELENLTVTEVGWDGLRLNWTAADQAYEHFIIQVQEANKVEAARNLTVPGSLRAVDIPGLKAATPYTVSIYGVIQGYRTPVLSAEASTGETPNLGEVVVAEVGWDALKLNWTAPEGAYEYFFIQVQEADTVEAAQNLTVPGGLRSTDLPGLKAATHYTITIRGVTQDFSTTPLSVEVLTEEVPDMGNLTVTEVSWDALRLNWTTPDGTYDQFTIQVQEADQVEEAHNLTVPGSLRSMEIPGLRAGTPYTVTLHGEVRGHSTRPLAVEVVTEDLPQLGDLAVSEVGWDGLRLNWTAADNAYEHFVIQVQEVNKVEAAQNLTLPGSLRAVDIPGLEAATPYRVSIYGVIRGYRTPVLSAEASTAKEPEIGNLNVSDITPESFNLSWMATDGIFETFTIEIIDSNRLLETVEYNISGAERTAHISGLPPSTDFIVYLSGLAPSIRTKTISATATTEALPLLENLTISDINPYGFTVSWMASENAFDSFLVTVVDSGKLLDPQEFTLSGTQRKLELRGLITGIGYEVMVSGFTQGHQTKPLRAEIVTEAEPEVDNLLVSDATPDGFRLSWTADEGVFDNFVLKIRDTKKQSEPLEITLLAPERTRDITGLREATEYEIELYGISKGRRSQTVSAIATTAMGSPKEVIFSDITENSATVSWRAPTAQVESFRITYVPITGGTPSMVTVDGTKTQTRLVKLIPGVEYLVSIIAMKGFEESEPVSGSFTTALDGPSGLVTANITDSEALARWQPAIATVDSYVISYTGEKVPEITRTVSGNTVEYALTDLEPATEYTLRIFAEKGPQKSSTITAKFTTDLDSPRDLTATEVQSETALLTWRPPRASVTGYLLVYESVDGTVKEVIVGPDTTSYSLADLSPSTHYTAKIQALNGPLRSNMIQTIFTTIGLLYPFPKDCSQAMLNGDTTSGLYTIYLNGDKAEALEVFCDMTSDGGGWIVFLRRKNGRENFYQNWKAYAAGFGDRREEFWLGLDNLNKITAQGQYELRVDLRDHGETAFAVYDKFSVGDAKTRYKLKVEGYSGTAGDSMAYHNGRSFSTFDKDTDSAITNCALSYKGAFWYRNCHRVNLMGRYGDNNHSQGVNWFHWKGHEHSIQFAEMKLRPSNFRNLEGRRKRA

“BC4 anti-human tenascin monoclonal antibody” came in with a Kd in assay [1] of 4.9 nM.

For biotinylated BC4 (antibody), the % of Immunoreactivity in assay [2] came to 82.4%; in assay [3], 67.2%; in assay [4] it was 12.6%; in assay [5] it was 74.4%. This substance also gave an immunoreactivity in assay [6] of 80%.

By Kd is commonly meant a measure of binding affinity in units of concentration. A lower Kd goes with a tighter complex.
